Data taken from FireProtDB (doi:10.1016/0014-5793(94)01308-n).
“And” between values parts separate entries of the source, which are not always exact repeats. Equal values may be shown once.

Conditions: Sus scrofa, Thermal, DSC, Sodium phosphate 5 mM, reversible: yes, whole UniProt chain shown

B1: Gastricsin wild type, P30879 (protein)
chain: SVIKVPLKKLKSIRQAMKEKGLLEEFLKTHKYDPAQRYRIGDISVALEPMAYLEAAYFGEISIGTPPQNFLVL
Tm (pH 6): 66.2 °C
unfolding enthalpy (calorimetric) (pH 6): 254 kcal/mol
unfolding enthalpy (calorimetric) (pH 6.4): 248 kcal/mol and 269 kcal/mol
Tm (pH 6.8): 47.2 °C
unfolding enthalpy (calorimetric) (pH 6.8): 221 kcal/mol
Tm (pH 7.2): 56.1 °C
unfolding enthalpy (calorimetric) (pH 7.2): 195 kcal/mol
Tm (pH 7.3): 39.8 °C
unfolding enthalpy (calorimetric) (pH 7.3): 192 kcal/mol
Tm (pH 7.7): 55 °C
unfolding enthalpy (calorimetric) (pH 7.7): 173 kcal/mol
Tm (pH 8): 51.1 °C
unfolding enthalpy (calorimetric) (pH 8): 182 kcal/mol
Tm (pH 8.2): 33.8 °C
unfolding enthalpy (calorimetric) (pH 8.2): 170 kcal/mol
